Data taken from article PMC2244645 (2007).

Target: alpha-synuclein (Homo sapiens, UniProt P37840)
Assay: SPR

Kd [µM] | Binder
> 190 | APTYF [PTYF peptide (immobilized with added N-terminal alanine)]
19 | AQSTQ [QSTQ peptide (immobilized with added N-terminal alanine)]
